# Literature values, collected in publication PMC5578180.
# Test system: His193
# Test: kinetics
# Details: folded, green (pre-photoconversion) state of LEA under illumination
substance,measurement,value
"Least Evolved Ancestor (LEA), ancestral reconstructed green-to-red photoconvertible GFP-like fluorescent protein (synthetic construct (ancestral gene reconstruction of Faviina coral GFP-like proteins; lineage of the great star coral, printed as Monastrea cavernosa); A60V;Q62H;T69A;D74H;T104R;S105N;Y116N;M154T;V157I;R194C;R216H;del217;L219G)",pKa,7.5
